# pIC50, pKd: −log10 of the molar value.
# What was measured:
# HLA-A*24:02 = experiment: IEDB peptide-MHC binding, purified MHC/direct/fluorescence; filed as Kd, often an IC50 or EC50 that approximates it; ≥ and ≤ were set here for values at or beyond the usual limits of such assays
# HLA-A*02:01 [1] = experiment: IEDB peptide-MHC binding, purified MHC/competitive/radioactivity; ≥ and ≤ were set here for values at or beyond the usual limits of such assays
# HLA-A*01:01 [2] = experiment: IEDB peptide-MHC binding, purified MHC/competitive/fluorescence; ≥ and ≤ were set here for values at or beyond the usual limits of such assays
# HLA-A*02:01 [3] = experiment: as above
# HLA-A*24:03 [4] = experiment: IEDB peptide-MHC binding, purified MHC/competitive/fluorescence; filed as Kd, often an IC50 or EC50 that approximates it; ≥ and ≤ were set here for values at or beyond the usual limits of such assays; details: source organism: Escherichia coli str. K-12 substr. MG1655
# HLA-B*35:01 [5] = experiment: as above; details: source organism: Shigella boydii CDC 3083-94
# HLA-B*58:01 [6] = experiment: as above; details: source organism: Shigella boydii CDC 3083-94
# HLA-A*01:01 [7] = experiment: IEDB peptide-MHC binding, purified MHC/direct/fluorescence; filed as Kd, often an IC50 or EC50 that approximates it; ≥ and ≤ were set here for values at or beyond the usual limits of such assays
# HLA-A*02:01 [8] = experiment: as above
# HLA-A*03:01 = experiment: as above
# HLA-A*11:01 = experiment: as above
# HLA-A*24:03 [9] = experiment: as above; details: source organism: Rickettsia prowazekii
# HLA-A*26:01 = experiment: as above
# HLA-A*31:01 = experiment: as above
# HLA-A*69:01 = experiment: as above
# HLA-B*07:02 = experiment: as above
# HLA-B*08:01 = experiment: as above
# HLA-B*15:01 [10] = experiment: as above
# HLA-B*27:05 = experiment: as above
# HLA-B*35:01 [11] = experiment: as above; details: source organism: Rickettsia prowazekii
# HLA-B*40:01 = experiment: as above
# HLA-B*44:02 = experiment: as above
# HLA-B*58:01 [12] = experiment: as above
# HLA-B*15:09 = experiment: as above; details: source organism: Influenza A virus(A/swine/Henan/8/2004(H9N2))
# HLA-B*18:01 = experiment: as above
# HLA-B*46:01 = experiment: as above
# HLA-B*15:01 [13] = experiment: IEDB peptide-MHC binding, purified MHC/competitive/fluorescence; ≥ and ≤ were set here for values at or beyond the usual limits of such assays; details: source organism: Vaccinia virus
# HLA-B*48:01 = experiment: IEDB peptide-MHC binding, purified MHC/competitive/fluorescence; filed as Kd, often an IC50 or EC50 that approximates it; ≥ and ≤ were set here for values at or beyond the usual limits of such assays; details: source organism: Burkholderia mallei SAVP1
# HLA-B*08:02 = experiment: IEDB peptide-MHC binding, purified MHC/direct/fluorescence; filed as Kd, often an IC50 or EC50 that approximates it; ≥ and ≤ were set here for values at or beyond the usual limits of such assays; details: source organism: Influenza A virus H3N2
# [14] = source organism: Rickettsia prowazekii
# [15] = source organism: Zaire ebolavirus
# [16] = source organism: Influenza A virus (A/duck/Korea/S10/03(H3N2))
# [17] = source organism: Influenza A virus (A/South Carolina/1/1918(H1N1))
sequence,measurement,setting,value
DYLTTYFTW,pKd,HLA-A*24:02; source organism: Bacillus anthracis str. A0488,≥ 9.00
FLPADFFPSV,pIC50,HLA-A*02:01 [1]; source organism: Hepatitis B virus,8.92
ITDFHERPV,pIC50,HLA-A*01:01 [2]; source organism: Variola virus,5.20
same,pIC50,HLA-A*02:01 [3]; source organism: Variola virus,5.24
IWIKLSYLW,pKd,HLA-A*24:02; source organism: Cryptosporidium parvum Iowa II,8.00
IYPGVNHGF,pKd,HLA-A*24:03 [4],9.52
KAWSEGLAM,pKd,HLA-B*35:01 [5],9.70
same,pKd,HLA-B*58:01 [6],6.34
NLKLYGAEF,pKd,HLA-A*01:01 [7]; [14],≤ 4.70
same,pKd,HLA-A*02:01 [8]; [14],≤ 4.70
same,pKd,HLA-A*03:01; [14],≤ 4.70
same,pKd,HLA-A*11:01; [14],≤ 4.70
same,pKd,HLA-A*24:03 [9],4.94
same,pKd,HLA-A*26:01; [14],≤ 4.70
same,pKd,HLA-A*31:01; [14],≤ 4.70
same,pKd,HLA-A*69:01; [14],≤ 4.70
same,pKd,HLA-B*07:02; [14],≤ 4.70
same,pKd,HLA-B*08:01; [14],6.36
same,pKd,HLA-B*15:01 [10]; [14],6.88
same,pKd,HLA-B*27:05; [14],≤ 4.70
same,pKd,HLA-B*35:01 [11],6.55
same,pKd,HLA-B*40:01; [14],≤ 4.70
same,pKd,HLA-B*44:02; [14],≤ 4.70
same,pKd,HLA-B*58:01 [12]; [14],≤ 4.70
NTSKSTDFL,pIC50,HLA-A*01:01 [2]; [15],≤ 3.72
same,pIC50,HLA-A*02:01 [3]; [15],≤ 3.30
PAHKSQLVW,pKd,HLA-A*01:01 [7]; [16],≤ 4.70
same,pKd,HLA-A*02:01 [8]; [16],≤ 4.70
same,pKd,HLA-A*03:01; [16],≤ 4.70
same,pKd,HLA-A*11:01; [16],≤ 4.70
same,pKd,HLA-A*24:02; [16],≤ 4.70
same,pKd,HLA-A*26:01; source organism: Influenza A virus(A/swine/Henan/8/2004(H9N2)),≤ 4.70
same,pKd,HLA-A*31:01; [16],≤ 4.70
same,pKd,HLA-A*69:01; [16],≤ 4.70
same,pKd,HLA-B*07:02; [16],≤ 4.70
same,pKd,HLA-B*08:01; [16],≤ 4.70
same,pKd,HLA-B*15:01 [10]; [16],≤ 4.70
same,pKd,HLA-B*15:09,≤ 4.70
same,pKd,HLA-B*18:01; [16],≤ 4.70
same,pKd,HLA-B*27:05; [16],≤ 4.70
same,pKd,HLA-B*40:01; [16],≤ 4.70
same,pKd,HLA-B*44:02; [16],≤ 4.70
same,pKd,HLA-B*46:01; [16],≤ 4.70
same,pKd,HLA-B*58:01 [12]; [16],5.66
PSIATNLEY,pIC50,HLA-A*01:01 [2]; source organism: Vaccinia virus,4.82
same,pIC50,HLA-B*15:01 [13],4.36
PTLDKVLEL,pIC50,HLA-A*02:01 [1]; source organism: Homo sapiens,5.00
RALAYDPAL,pKd,HLA-B*48:01,7.09
RLFFKCIYR,pKd,HLA-A*01:01 [7]; [17],≤ 4.70
same,pKd,HLA-A*02:01 [8]; [17],≤ 4.70
same,pKd,HLA-A*03:01; source organism: Influenza A virus (A/Puerto Rico/8/34/Mount Sinai(H1N1)),6.84
same,pKd,HLA-A*24:02; [17],≤ 4.70
same,pKd,HLA-B*07:02; [17],≤ 4.70
same,pKd,HLA-B*08:01; [17],≤ 4.70
same,pKd,HLA-B*08:02,≤ 4.70
same,pKd,HLA-B*15:01 [10]; [17],≤ 4.70
same,pKd,HLA-B*18:01; [17],≤ 4.70
same,pKd,HLA-B*27:05; [17],≤ 4.70
same,pKd,HLA-B*40:01; [17],≤ 4.70
same,pKd,HLA-B*44:02; [17],≤ 4.70
same,pKd,HLA-B*46:01; [17],≤ 4.70
same,pKd,HLA-B*58:01 [12]; [17],≤ 4.70

# — the Immune Epitope Database (IEDB)
